# Data: the nanobody polyreactivity screen of Harvey et al. (2022)
# Experiment: yeast display, Sf9 membrane polyspecificity reagent, FACS + sequencing; frameworks hold sequencing errors
# How it was run: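 Synthetic nanobody libraries on Saccharomyces cerevisiae BJ5465 were galactose-induced for 36–48 hours, stained 1 hour at 4 °C with 10% biotinylated, detergent-solubilized Sf9 membrane reagent and enriched on streptavidin microbeads. FACS then separated cells into low and high (top ~1%) gates by anti-HA (expression) and streptavidin (reagent binding) fluorescence. Genes were colony-PCR amplified, MiSeq 2 × 250 sequenced and CDR-length filtered. A clone's polyreactivity label is that of its gate of origin.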
sequence,measurement,value
QVQLVESGGGLVQAGGTLRLSCAPSGHIVFYYTKGWYRQAPGKERELVAGITIGGSTNYADSVKGRFTISRDNAKNTVYLQMNSLKPEDTAVYYCNVVKYVYIYSYWEYYYWGQGTQVTGSS,polyreactivity (PSR sort gate),low polyreactivity
QVQLVESGGGLVQAGGTLRLSCDASGRTFHVYAMGWYRHAPGKERELVAAISGRTGSTYYADSVKGRFTISRDIAKNTVYLQMNSLKPEDTAVYYCAKGYSYGWWGGFGYWGQGTQVTVSS,polyreactivity (PSR sort gate),high polyreactivity
QVQLVESGGGLVQAGGTLRLSCPASGSNFNRYAMGSYRKAPGKERELVAAISSTGSTFYADSVKWRFTISRDNAKITVYLQMNSLTPEDTAVYYCNADATHDWLRVDTYEYWGQGTQVTVSS,polyreactivity (PSR sort gate),low polyreactivity
QVQLVESGGGLVQAGGTLRLSCSASGGTIAIYAMGWYRHARGKEREMVARISYSSGSTHYADSVKGRFTISRDNAKNTVFLQMNSLKPEDSAVYYCAATAYWFYAKDYYWGQGSQVTVSS,polyreactivity (PSR sort gate),high polyreactivity
QVQLVESGGGLVQAGGTLRLSCSASGRTFFSYAMGWYRQAQGKERELVAAITYSGGRTYYADSVKGRFTISRDNAKNTVYVQMNSLKRDDTAVYYCAGTHYREKMDYWGQGTQLTVSS,polyreactivity (PSR sort gate),low polyreactivity
QVQLVESGGGLVQAGGTLRLSGAASGSTFFFNAMGWYRQAPGKEWELVAAITGSGGSTYYADSVQGRFTISRDNAKNTVYLQMNSLKPEDTAVYYCAAYGAKPSEYYWGQGTQVTVSS,polyreactivity (PSR sort gate),low polyreactivity
QVQLVESGGGLVQAGGTLRLSGAASGSTFVYNAMGWNIQAPGKERDLVAVITRRGGSPYYADSVNGRFTISRDNEKKTVYLQMNILNPEDTAVYYCAAGYRRTQTTDYHYWGHGTQVTVSS,polyreactivity (PSR sort gate),high polyreactivity
QVQLVESGGGLVQAGRSLRISCAASGRIFYYNDMGRYRQAPGKERELVAAITWTDDGTYYADSVKARFTISRDNAKNTVYLQMNSLKPEVTAVYYCAAESFYGFEYWGQGTQLTVSS,polyreactivity (PSR sort gate),low polyreactivity
QVQLVESGGGLVQAGRSLRLICAASGSTFVIYDMVWYRQAPGKERELVAAISYSGGSTYYADSVKGRFKISRDNAKNTVYLEMNSLKPEDTAVYYCNAGVLVLLYSYLQSELEYWGQGTQVTVSS,polyreactivity (PSR sort gate),low polyreactivity
QVQLVESGGGLVQAGRSLRLSCAASGFIILGNAMGWYRQAPGKERELVAAISSGGSTYADSVKGRFTISRDNAKNTVYLQMNSLKPEDTAVYYCAVDRAFRAQNYHEYDYWGQGTQVTVSS,polyreactivity (PSR sort gate),low polyreactivity
QVQLVESGGGLVQAGRSLRLSCAASGITLVRNAMGWSRQAPGKEMELVAAISSNGDNTYYADSVKGRFTISSDNAKNTVYLQMNSLKPEDTAVYYCAVGGPVIWWGPKYDYWGQGTQVTVSS,polyreactivity (PSR sort gate),high polyreactivity
QVQLVESGGGLVQAGRSLRLSCAASGLIFSWYAMGWYRQAPGKEREFVAAIRWSGSGTYYADSVKGRFTISRDNAKNTVYLQMNSLKPEDTAVYYCAVRWSSGSRRYNYWGQGTQVTVSS,polyreactivity (PSR sort gate),high polyreactivity
QVQLVESGGGLVQAGRSLRLSCAASGRIFYRKAMGWYRQAPGKERELVAGITSGGSTNYADSVKGRFTISRDNEKNTFDLQMNSVKPEDTAVYYCAKASPAKFYSEAGYDYWGQGTQVTVSS,polyreactivity (PSR sort gate),low polyreactivity
QVQLVESGGGLVQAGRSLRLSCAASGRSFKYYPMGWYRQAPGKERELVARISRSSGNTYYADSVKGRFTISRDTAKNTVYLQMNSLKAEDTAVYFCATVPHYNGFNYWGQGTQVTVSS,polyreactivity (PSR sort gate),high polyreactivity
QVQLVESGGGLVQAGRSLRLSCAASGRTFPYYVMGWYRQAPGKDRELVAAINSGGRTNYADSVKGRFTISRDNAKNTVYLQLNSLKPEDTAVYYCTKRGHPARLGYYYWGQGTLVTVSS,polyreactivity (PSR sort gate),low polyreactivity
QVQLVESGGGLVQAGRSLRLSCAASGSIFSRNAMGWYRQAPGKERELVAAITGSASSTYYADSVKGRFTISRDNAKNTVYLQMNSLKPEDTAVYYCNAARVYLSECGQGTQVTVSS,polyreactivity (PSR sort gate),high polyreactivity
QVQLVESGGGLVQAGRSLRLSCAASGSILGTYAMGWYRQAPGKERELVAAISSSGRTSYADSVKGRFTISRDNAKNTVYLQMNSLKPEDTAVYYCNASNYIVLINDPDAAPWLYDYWGQGTQVTVSS,polyreactivity (PSR sort gate),low polyreactivity
QVQLVESGGGLVQAGRSLRLSCAASGSTFSVNAMGWYRQAPGKERELVAAIPSGGNTYADSVKGRFTISRDNAKNTVYLQMNSLKPEDTAVYYCAVDNRDLFFYPGGFDYWGQGTQVTVSS,polyreactivity (PSR sort gate),low polyreactivity
QVQLVESGGGLVQAGRSLRLSCAASGSTFVHNAMGWYRQAPGKERELVAAISRSGGRTYYADSVKGRFTISRDNAKNTVYLQMNSLKPEDTAVYDCAAGLHWTRYPSAHYLFEYWGQGTQVTVSS,polyreactivity (PSR sort gate),high polyreactivity
QVQLVESGGGLVQAGRSLRLSCAASGSTFVNYAMGWYRQAPGKERELVAAISRSGGRTYYADSVKGRFTISRDNAKNTVYLQMNSLKPEDTAVYYCAPLLLSPEYGYWGQGTQVTVSS,polyreactivity (PSR sort gate),high polyreactivity
QVQLVESGGGLVQAGRSLRLSCAASGSTFWEYAMGWYRQAPGNEREFVAAISTSGGSTYYADSLKGRFTISRDTAKYTVYLQMNSLKPEDTAVYYCAAGRVRRRVWYNYWGQGTQVTVSS,polyreactivity (PSR sort gate),high polyreactivity
QVQLVESGGGLVQAGRSLRLSCAASGYTFSPNDMGWYRQAPGKERELVATITYGGGTTYYADSVKGRFTISRDNAKNTVYLQMNSLKPEDTAVYYCAKDVPLYRAHDGYDYWGQGTQVTVSS,polyreactivity (PSR sort gate),low polyreactivity
QVQLVESGGGLVQAGRSLRLSCAASGYTFYVYAMGWYRQAPGKERELVASISSGGITYYADSVKGRFTISRDNAKNTVYLQMNILKPEDTAVYYCAADWQWTYDYWGQGTQVTVSS,polyreactivity (PSR sort gate),low polyreactivity
QVQLVESGGGLVQAGRSLRLSCAASVSIFAGYAMGWYRQAPGKERELVAGISYSGGRTYYADSVKGRFTISRDNAKNTVYLQMNSLKPEDTAVYYCNARFVRVRKGYGYWGLGTQVTVSS,polyreactivity (PSR sort gate),high polyreactivity
QVQLVESGGGLVQAGRSLRVSCAASGRIFIWNAMGWYRQAPGNERELVAAISWSGGSTYYADSVKGRFTISRDNAKNTVYLQINSLKPEDTAVYYCAARDVRPYYVKPPVRYYYWGQGTQVTVSS,polyreactivity (PSR sort gate),high polyreactivity
QVQLVESGGGLVQAGRTLRLSCAASGFTFYYNAMGWYRQAPGKERELVATITGSTYYADSVKGLFTISRDNATYSVYLQMNSLKPEDTAVYYCTADASLVLAEYDYWGQGTQVTVSS,polyreactivity (PSR sort gate),low polyreactivity
QVQLVESGGGLVQAGVSLRISCAASASILVTNAMGWYRHAPGKERELVAAITSIGGSTNYADSVKGRFTISRDNAKNTVYLQMNSLKPEDTAVYYCAAGIYPTVFWVYYWGQGTQVTVSS,polyreactivity (PSR sort gate),low polyreactivity
QVQLVESGGGLVQAGVSLRLSCAASGFTFYYNAMGWYRQAPGKERELVAAINYSGGSTYYADSVKGRFTISRDNAKNTVYLQMNSLKPEDTAVYYCNAVGYSVFRRYNYWGQGTQVTVSS,polyreactivity (PSR sort gate),high polyreactivity
QVQLVESGGGLVQAGVSLRLSCAASGGTLSNYAMGWYRQAPGKERELVAAITYRGGSTYYADSVKGRFTISRDNAKNTVYLQMNSQKPEDTAVYSCAAPGFKPFSFDSWGQGTQVTVSS,polyreactivity (PSR sort gate),low polyreactivity
QVQLVESGGGLVQAGVSLRLSCAASGKTVYSYAMGWYRQAPGKKRQLVAGISYIGGRTYYADSVKGRFTISRDNAKNTFYLQMNSLNPEDTAFYYCAAVYWYGRRKYYSWGQGTQVTVSS,polyreactivity (PSR sort gate),high polyreactivity
QVQLVESGGGLVQAGVSLRLSCAASGLTFGNYAMGWYRQAPGKERELVAAISKRGGTTYYADSVKARFTISRDNAKNTVYLQMNSLKPEDTAVYYCSARDYSHPTDDNYWGQGTQVTVSS,polyreactivity (PSR sort gate),high polyreactivity
QVQLVESGGGLVQAGVSLRLSCAASGLTFKWNAMGWYRHAPGKEREFVAAITKRAGSTYYADSVKGRFTISRDNAKNTVYLQMNSLKPEDTAVYYCAADDGYFYARYDYWGHGTQVTVSS,polyreactivity (PSR sort gate),low polyreactivity
QVQLVESGGGLVQAGVSLRLSCAASGLTFSKYAMGWYREAPGNERDLVAAITRGDRTYYADSVKGRFTISRDNAKNTVYLHMNSLKPADTAVYYCAARQYYWGQGTQVTVSS,polyreactivity (PSR sort gate),high polyreactivity
QVQLVESGGGLVQAGVSLRLSCAASGRIFGENAMGWYRQAPGEEREFVAVISISDASTYYADSVKGRFTISRDNAKNTVYFQMNSLKPEDTAVYYCAADLTDFLYVASDYCGQGTQVTVSS,polyreactivity (PSR sort gate),low polyreactivity
QVQLVESGGGLVQAGVSLRLSCAASGRIFYAYAMGWYRKAPGKERELVAAISSSGRTYYADSVKGRLTISRDNAKNTVYLQMNSLKPEDTAVYYCAVDWSRQAHKFNYWGQGTQVTVSS,polyreactivity (PSR sort gate),high polyreactivity
QVQLVESGGGLVQAGVSLRLSCAASGRTFGYNAMGWYRQAPGKERVVVAAITIGGSTNYADSVKGRFTISRDNAKNTVYLQMNSLKPEDTAVYYCAAYDTLLYWVEFYYWGQGTQVTVSS,polyreactivity (PSR sort gate),low polyreactivity
QVQLVESGGGLVQAGVSLRLSCAASGRTFGYYTMGWSRQAPGKERELVAGISSAGSTNYADSVKGRFTISRDNAKNTVYFQMNSLKPADTAVYDCAARTYKVIQNNSWETYYYWGQGTQVTVSS,polyreactivity (PSR sort gate),high polyreactivity
QVQLVESGGGLVQAGVSLRLSCAASGRTFRSNAMGWYRQSPGKERELVAAITASGGNTYYADSVKGRFTISRDNAKNTVYLQMNSLKPEDTAVYYCAAVSRYNYGTNPYYYWGQGTQVTVSS,polyreactivity (PSR sort gate),high polyreactivity
QVQLVESGGGLVQAGVSLRLSCAASGRTFTSYPMGLYRQAPGKERELVAAISSRGGSTSYADSVKGRLTISRDNANNTVYLQMNSLKEEDTAVYYCARRIRQQRFGGNYWGQGTQVTVSS,polyreactivity (PSR sort gate),high polyreactivity
QVQLVESGGGLVQAGVSLRLSCAASGRTFVHYTMGWSRQSPGKERELVATISTSGGSTSYADSVKGRFTISRDNAKNTVYLQMNSLKPEDTAVYYCAARWYFPDRVKYDYWGQGTQVSVSS,polyreactivity (PSR sort gate),low polyreactivity
QVQLVESGGGLVQAGVSLRLSCAASGSTFSVNAMGWYRQAPGKERELVAAITYSGGSTYYADSVKGRFTISRDNAKNTVYLQMNSLKPEDTAVYYCAAEGGSALDDDYWGQGTQVTVSS,polyreactivity (PSR sort gate),high polyreactivity
QVQLVESGGGLVQAGVSLRLSCAASGSTFTSYAMGWYRQAPGKERELVAAINDSAGSTYYADSVKGRFTISRDNAKNTAYLQKNSLKPDDTAVYYCAADGYNRQYVTYYYWGQGTQVTVSS,polyreactivity (PSR sort gate),low polyreactivity
QVQLVESGGGLVQAGVSLRLSCAASGSTFTYYAMGWYRQAPGKERELVAAITNSGGSTYYAVSVKGRFTISRDNAKNTVYLQMNSLKPEDTAVYYCAATRVDSDDRTRFYYWGQGTQVTVSS,polyreactivity (PSR sort gate),high polyreactivity
